Article PMC5339894, “G196 epitope tag system: a novel monoclonal antibody, G196, recognizes the small, soluble peptide DLVPR with high affinity” (Scientific Reports, 2017)
Entries after “also recorded” stand apart in the source; their conditions may differ.

Assays:
[1] = tested on: cellular proteins of HeLa cells; assay: Western blot cross-reaction with cellular proteins; format: cell-based, human; conditions: HeLa cell extracts, Western blot (lanes 3, 4)
From the text: Short peptides and paired mAbs specific for the sequences of interest are powerful and irreplaceable tools for scientific research. To ascertain the possible versatility of G196-tag as a versatile fusion tag, we generated several human and yeast expression constructs in which the G196-tag was fused to reporter proteins. First, we expressed FLAG- and HA-tagged Emerald GFP (hereafter abbreviated FHG) as a reporter protein, C-terminally fused with a G196-tag (6P12, SDLVPRGSP) in HeLa cells.
Figure 5 Application of the G196 epitope tag system for scientific research. (a) Western blot and immunoprecipitation (IP) analysis of FLAG-HA-Emerald GFP (FHG) tagged with C-terminal G196-tag in HeLa cells using mAb G196. HeLa cells were transfected with FHG/pcDNA3 or FHG-G196/pcDNA3. After incubation for two days, the cells were lysed and subjected to Western blotting with anti-FLAG (M2) or G196 mAbs (left panel). These lysates were immunoprecipitated with anti-FLAG (M2) (lanes 7, 8) or G196 (lanes 9, 10) mAbs and subjected to Western blotting with anti-FLAG polyclonal antibody (right panel). (b) Immunofluorescence of GFP- and G196-tagged nuclear protein in HeLa cells using mAb G196. […] Protein extracts were separated by SDS-PAGE and detected with mAb G196 and anti-GFP polyclonal antibody (left panel). […] Asterisk indicates non-specific band also detected using the second Ab alone. […]

[2] = tested on: Atf1-G196-GFP at the tdh1 promoter; assay: chromatin immunoprecipitation (ChIP) in fission yeast; format: cell-based; conditions: promoter of tdh1 gene (CRE consensus site); 3 μL mAb G196; qPCR
Experimental: Yeast cells were grown in YES medium at 30 °C to mid-log phase. After formaldehyde crosslinking and quenching, 1 × 10^8 cells were harvested to obtain 2 mL of soluble input extract. M-280 anti-mouse sheep antibody-conjugated magnetic beads (112-02, ThermoFisher Scientific) were used for immunoprecipitation: 200 μL of the beads were washed twice with extraction buffer (50 mM HEPES-KOH (pH 7.5), 140 mM NaCl, 1 mM EDTA, 1% Triton X-100, and 0.1% sodium deoxycholate), and then incubated in 1 mL of extraction buffer containing 3 μL of mAb G196 for 1 h at 4 °C. The beads were again washed twice with extraction buffer to remove unbound antibodies and incubated for 1 h with 800 μL of input extract at 4 °C. The relative concentrations of the target sequences were determined using SYBR Premix ExTaq (RR041A, TaKaRa Bio, Shiga, Japan) and a Thermal Cycler Dice Real Time System TP800 (TaKaRa Bio), according to the manufacturer’s instructions. The primers for detecting the −1 kb region were 5′-[…]-3′ and 5′-[…]-3′, and for the tdh1 CRE region the primers were 5′-[…]-3′ and 5′-[…]-3′.

[3] = tested on: N- and C-terminally G196-tagged protein; assay: detection of N- and C-terminally G196-tagged protein; conditions: this study and refs. 22 and 23

B1: mAb G196: mouse mAb (IgG1) raised against GST protein bacterially expressed using the pGEX-2T vector (antibody, V domains shown)
VH: QVKLQESGAELVKPGASVKLSCKASGYTFTNYWMHWVKLRPGQGFEWIGEINPSNGGSNYNEKFKRKATLTVDKSSSTAYMQLSSLTSEDSAVFYCSIWDSYFDYWGQGTTLTVSS
VL: NIVMTQSPKSMSMSVGERVTLTCKASENVVTYVSWYQQKPEQSPKLLIYGASNRYTGVPDRFTGSGSATDFTLTISSVQAEDLADYHCGQGYSYPYTFGGGTKLEIK
cross-reaction with cellular proteins [1]: did not cross-react with cellular proteins; also recorded: did not (cross-)react with cellular proteins | ChIP of Atf1 [2]: enriched the Atf1 protein at the promoter of the tdh1 gene | detection of N- and C-terminally tagged protein [3]: detected both N- and C-terminally G196-tagged protein
